Earlier results on two substances are cited in PMC3409362.

Data set [1] has as its target F-actin (Oryctolagus cuniculus) (UniProt P68135).
Data set [2] has the same target. The source holds these as a separate data set.

Where two headings read alike, the source gives them in different places.

For “V-ATPase B1 subunit (from UniProt P15313)”, the Kd in data set [1] is 150 nM.

Take “V-ATPase B2 subunit (from UniProt P21281)”: in data set [2], the Kd is 150 nM.

One may read the Kd as the equilibrium constant for the complex coming apart.
